Data taken from paper PMC5457915, “Real-time analysis of the binding of fluorescent VEGF165a to VEGFR2 in living cells: Effect of receptor tyrosine kinase inhibitors and fate of internalized agonist-receptor complexes” (Biochemical Pharmacology, 2017).
Several values for one entry are separate records, joined by “and”; a condition that tells them apart may be missing. Identical values can stand only once. Entries after “also recorded” stand apart in the source; their conditions may differ. Blank lines part the entries; values can stand above or below the molecule they belong to.

Key:
NLuc-VEGFR2 = biological target: T1, NLuc-VEGFR2 (Homo sapiens, UniProt P35968); test: NanoBRET ligand binding (saturation/competition) in living HEK293T NLuc-VEGFR2 cells; conditions: maximal response relative to binding of VEGF165a-TMR alone; RTKI 30 min pre-treatment, 60 min ligand
T1 construct: full length VEGFR2, tagged with the bioluminescent protein NanoLuc; IL-6 signal peptide (N); expressed in transfected cells
Protocol: On the day of the assay, medium was replaced with 50 μl per well HBSS/0.1% protease free BSA. Where appropriate, RTKIs were added 30 min prior to agonist. For competition experiments, a fixed concentration of fluorescent VEGF165a-TMR was added simultaneously with competing unlabeled VEGF isoforms to triplicate wells for the time specified (10, 30 or 60 min) and plates co-incubated at 37 °C in the dark. For saturation experiments a range of concentrations of VEGF165a-TMR were added in the presence or absence of a competing concentration (30 nM) of unlabeled VEGF165a and incubated for 60 min at 37 °C in the dark. The NanoLuc substrate furimazine (N1130; Promega Corporation, USA) was then added at a final concentration of 10 μM. […] For all experiments, sequential recordings were performed at room temperature using a PHERAstar FS plate reader (BMG Labtech, Germany) using 460 nm (80 nm bandpass; donor NanoLuc emission) and >610 nm longpass filters (acceptor emission). Raw BRET ratios were calculated from the ratio of acceptor to donor emission values. For real-time ligand association kinetics experiments, cells were incubated with vehicle for 30 min at 37 °C. Furimazine (10 μM) was then added and plates equilibrated at 37 °C in the PHERAstar FS plate reader for 5 min.
Equilibrium binding: All data were analysed using Prism 6 (GraphPad; San Diego, CA, USA). NanoBRET competition experiments were fitted as raw BRET ratios using non-linear least squares regression (variable slope) with no constraints used. Saturation curves were fitted simultaneously for total (VEGF165a-TMR alone) and non-specific binding (top concentration of competing VEGF165a alone) using both one and two site fits. Background and non-specific binding parameters were shared across all data sets.
Binding affinities (Ki) of the unlabeled ligands were calculated using the Cheng-Prusoff equation: Ki=IC50/1+[L]/KD where [L] is the concentration of fluorescent ligand used (nM). KD values (nM) were derived from saturation binding curves. […]

VEGFR2 = VEGFR2 (Homo sapiens, UniProt P35968); test: Confocal / structured illumination microscopy of VEGF165a-TMR and VEGFR2 location after RTKI pre-treatment; assay type: cell-based; parameters: full length VEGFR2, tagged with the bioluminescent protein NanoLuc; IL-6 signal peptide (N); expressed in transfected cells; conditions: RTKI 30 min pre-incubation, then 10 nM VEGF165a-TMR 30 min
Protocol: On the day of the assay, cells were washed three times with HBSS/0.1% protease free BSA (vehicle). Receptor tyrosine kinase inhibitors were added at this point as aliquots to the appropriate wells and cells incubated for 30 min at 37 °C. Cells were then stimulated with 10 nM VEGF165a-TMR for 30 min at 37 °C in the dark.
All cells were then fixed using 3% PFA/PBS (10 min at room temperature), washed with PBS and mounted onto slides using Prolong Gold antifade reagent (P10144; Thermo Fisher Scientific, USA). TetraSpeck™ microspheres (0.1 μm; T7279, Thermo Fisher Scientific, USA) were included in each experiment to allow X/Y/Z channel alignment correction in image processing. […] Images were manually processed with consistent raw scaling between and within experiments.

[1] = biological target: NLuc-VEGFR2 (full length human VEGFR2 with NanoLuc on its N-terminus) (human) (UniProt P35968); test: FRET or BRET; NanoBRET competition on living HEK293T NLuc-VEGFR2 cells; vehicle 30 min at 37 °C, then VEGF165a-TMR (0.5-3 nM) with unlabeled VEGF165a for 30 min at 37 °C
[2] = biological target: NLuc-VEGFR2 (full length human VEGFR2 with NanoLuc on its N-terminus) (human) (UniProt P35968); test: FRET or BRET; NanoBRET competition on living HEK293T NLuc-VEGFR2 cells; 1 μM cediranib 30 min at 37 °C, then VEGF165a-TMR (0.5-3 nM) with unlabeled VEGF165a for 10 min at 37 °C
[3] = biological target: NLuc-VEGFR2 (full length human VEGFR2 with NanoLuc on its N-terminus) (human) (UniProt P35968); test: FRET or BRET; NanoBRET competition on living HEK293T NLuc-VEGFR2 cells; fixed VEGF165a-TMR (0.1-3 nM) added simultaneously with increasing unlabeled VEGF isoform, 60 min at 37 °C, HBSS/0.1% BSA; IC50 (molar) converted to pKi by Cheng-Prusoff; also linear regression of IC50 against [VEGF165a-TMR]; apparent
[4] = biological target: NLuc-VEGFR2 (full length human VEGFR2 with NanoLuc on its N-terminus) (human) (UniProt P35968); test: FRET or BRET; NanoBRET competition on living HEK293T NLuc-VEGFR2 cells; vehicle 30 min at 37 °C, then VEGF165a-TMR (0.5-3 nM) with unlabeled VEGF165a for 10 min at 37 °C
[5] = biological target: NLuc-VEGFR2 (full length human VEGFR2 with NanoLuc on its N-terminus) (human) (UniProt P35968); test: FRET or BRET; NanoBRET competition on living HEK293T NLuc-VEGFR2 cells; 1 μM cediranib 30 min at 37 °C, then VEGF165a-TMR (0.5-3 nM) with unlabeled VEGF165a for 60 min at 37 °C
[6] = biological target: NLuc-VEGFR2 (full length human VEGFR2 with NanoLuc on its N-terminus) (human) (UniProt P35968); test: FRET or BRET; NanoBRET competition on living HEK293T NLuc-VEGFR2 cells; 1 μM cediranib 30 min at 37 °C, then VEGF165a-TMR (0.5-3 nM) with unlabeled VEGF165a for 30 min at 37 °C
[7] = biological target: NLuc-VEGFR2 (full length human VEGFR2 with NanoLuc on its N-terminus) (human) (UniProt P35968); test: FRET or BRET; NanoBRET competition on living HEK293T NLuc-VEGFR2 cells; vehicle 30 min at 37 °C, then VEGF165a-TMR (0.5-3 nM) with unlabeled VEGF165a for 60 min at 37 °C
[8] = biological target: NLuc-VEGFR2 (full length human VEGFR2 with NanoLuc on its N-terminus) (human) (UniProt P35968); test: FRET or BRET; NanoBRET saturation on living HEK293T NLuc-VEGFR2 cells; VEGF165a-TMR 0.1-3 nM with or without 30 nM unlabeled VEGF165a (non-specific binding), 60 min at 37 °C, HBSS/0.1% BSA; one site fit; apparent
[9] = biological target: NLuc-VEGFR2 (full length human VEGFR2 with NanoLuc on its N-terminus) (human) (UniProt P35968); test: FRET or BRET; NanoBRET real-time association kinetics on living HEK293T NLuc-VEGFR2 cells; VEGF165a-TMR 1-20 nM, read every 30 s for 16 min at 37 °C; kobs against concentration, linear only at the three lowest concentrations
[10] = biological target: VEGF165a-TMR (fluorescent VEGF165a labeled with 6-TMR-PEG-CBT on a single N-terminal cysteine of each protomer) (human); test: fluorescence correlation spectroscopy; solution FCS of VEGF165a-TMR (0.25-10 nM) in HBSS with 0.1% protease-free BSA; also without BSA and with 10 mM DTT (30 min at 37 °C); number of fluorescent particles against the concentration calculated for a dimer
[11] = biological target: NLuc-VEGFR2 (full length human VEGFR2 with NanoLuc on its N-terminus) (human) (UniProt P35968); test: FRET or BRET; NanoBRET saturation on living HEK293T NLuc-VEGFR2 cells, without cediranib (Fig. 6b)
[12] = biological target: VEGF165a-TMR (fluorescent VEGF165a labeled with 6-TMR-PEG-CBT on a single N-terminal cysteine of each protomer) (human); test: SDS-PAGE with and without DTT, fluorescence scan; purified VEGF165a-TMR in the presence or absence of 100 mM DTT, scanned on a Typhoon 9400 (Ex 532 nm, Em 580 nm)
[13] = biological target: NLuc-VEGFR2 (full length human VEGFR2 with NanoLuc on its N-terminus) (human) (UniProt P35968); test: FRET or BRET; NanoBRET saturation on living HEK293T NLuc-VEGFR2 cells, 30 min pre-incubation with 1 μM cediranib (Fig. 6b)
[14] = biological target: T2, NLuc-VEGFR2 (full length human VEGFR2 with NanoLuc on its N-terminus) (human, UniProt P35968-1 20-1356); test: FRET or BRET; NanoBRET competition on living HEK293T NLuc-VEGFR2 cells; fixed VEGF165a-TMR (0.1-3 nM) added simultaneously with increasing unlabeled VEGF isoform, 60 min at 37 °C, HBSS/0.1% BSA; IC50 (molar) converted to pKi by Cheng-Prusoff; also linear regression of IC50 against [VEGF165a-TMR]; apparent; conditions: one partner purified
T2 construct: VEGFR2, human, subcloned from an Origene plasmid (NM_002253); called full length VEGFR2; Open reading frame: IL-6 signal peptide, NanoLuc, Gly-Ser-Ser-Gly(AIA) linker, VEGFR2 (vector pF-sNnK CMV/neo); also called NanoLuc VEGFR2; NanoLuc-tagged VEGFR2; not shown: NanoLuc, N-terminal, kept
T2 sequence (P35968 20-1356): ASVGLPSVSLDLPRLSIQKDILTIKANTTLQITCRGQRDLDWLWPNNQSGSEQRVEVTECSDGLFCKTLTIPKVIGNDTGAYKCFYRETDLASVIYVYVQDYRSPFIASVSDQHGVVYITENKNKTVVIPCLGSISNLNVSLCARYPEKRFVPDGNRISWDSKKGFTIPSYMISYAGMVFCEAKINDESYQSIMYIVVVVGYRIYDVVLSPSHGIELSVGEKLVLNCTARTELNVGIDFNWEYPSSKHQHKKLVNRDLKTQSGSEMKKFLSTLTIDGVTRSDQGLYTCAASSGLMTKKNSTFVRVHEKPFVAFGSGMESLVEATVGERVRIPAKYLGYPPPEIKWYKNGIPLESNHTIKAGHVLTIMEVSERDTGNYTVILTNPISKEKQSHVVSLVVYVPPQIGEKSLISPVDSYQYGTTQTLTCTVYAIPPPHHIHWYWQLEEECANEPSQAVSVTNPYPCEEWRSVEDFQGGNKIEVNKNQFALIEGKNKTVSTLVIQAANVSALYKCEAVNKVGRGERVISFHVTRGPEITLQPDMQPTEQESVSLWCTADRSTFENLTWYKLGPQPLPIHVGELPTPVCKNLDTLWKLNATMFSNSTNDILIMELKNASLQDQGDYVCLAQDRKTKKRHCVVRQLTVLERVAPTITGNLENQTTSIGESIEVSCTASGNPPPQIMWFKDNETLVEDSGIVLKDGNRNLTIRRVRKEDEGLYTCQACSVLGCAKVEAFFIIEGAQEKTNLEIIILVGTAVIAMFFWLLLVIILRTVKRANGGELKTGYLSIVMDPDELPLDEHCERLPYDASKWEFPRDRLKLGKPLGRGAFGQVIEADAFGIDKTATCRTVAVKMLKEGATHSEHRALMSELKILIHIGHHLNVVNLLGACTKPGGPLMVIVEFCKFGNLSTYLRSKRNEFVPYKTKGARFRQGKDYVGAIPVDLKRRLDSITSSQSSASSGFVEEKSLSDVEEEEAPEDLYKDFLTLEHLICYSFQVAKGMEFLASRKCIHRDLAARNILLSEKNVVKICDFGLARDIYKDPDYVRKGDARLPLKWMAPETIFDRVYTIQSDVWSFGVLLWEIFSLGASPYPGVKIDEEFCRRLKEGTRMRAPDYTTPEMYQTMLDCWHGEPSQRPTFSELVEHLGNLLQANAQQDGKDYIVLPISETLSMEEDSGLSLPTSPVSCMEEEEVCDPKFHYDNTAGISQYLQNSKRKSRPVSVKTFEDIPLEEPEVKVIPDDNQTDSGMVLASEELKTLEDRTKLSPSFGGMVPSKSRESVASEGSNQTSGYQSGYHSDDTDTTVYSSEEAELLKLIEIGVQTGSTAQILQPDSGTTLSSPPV

Chain of NLuc-VEGFR2 (full length human VEGFR2 with NanoLuc on its N-terminus) (human) (P35968 20-1356): as above
T1 sequence (P35968 20-1356): as above
Chain of VEGFR2 (P35968 20-1356): as above

- NanoBRET % Increase in binding of 10 nM VEGF165a-TMR (NLuc-VEGFR2): 139.0 ± 4.4% and 139.0 ± 2.0 (4) %
Molecule: COc1cc2c(Oc3ccc4[nH]c(C)cc4c3F)ncnc2cc1OCCCN1CCCC1 [Cediranib]
- effect on VEGFR2 internalization by VEGF165a-TMR / cellular location of VEGF165a-TMR (VEGFR2): prevented; also recorded: largely localised to the cell membrane

- NanoBRET % Increase in binding of 10 nM VEGF165a-TMR (NLuc-VEGFR2): 144.8 ± 3.5 (4) %
- effect on VEGFR2 internalization by VEGF165a-TMR / cellular location of VEGF165a-TMR (VEGFR2): prevented
Molecule: Cc1ccc(Nc2nccc(N(C)c3ccc4c(C)n(C)nc4c3)n2)cc1S(N)(=O)=O [Pazopanib]

- NanoBRET % Increase in binding of 10 nM VEGF165a-TMR (NLuc-VEGFR2): 152.8 ± 7.1 (4) %
- effect on VEGFR2 internalization by VEGF165a-TMR / cellular location of VEGF165a-TMR (VEGFR2): prevented
Molecule: COc1cc2c(Nc3ccc(Br)cc3F)ncnc2cc1OCC1CCN(C)CC1 [Vandetanib]

- pKi [1]: 8.99
- pKi [2]: 9.17
- Ki [3]: 0.22 nM
- pKi [3]: 9.81
- pKi [4]: 8.93
- pKi [5]: 9.18
- pKi [6]: 9.23
- pKi [7]: 9.28
Molecule: VEGF165a (recombinant human, R&D Systems) (ligand)

- Kd [8]: 0.92 nM
- Kd [9]: 2.27 nM
- koff [9]: 0.00183 s⁻¹
- kon [9]: 797000 M⁻¹ s⁻¹
- stoichiometry N [10]: 2
- Kd [3]: 0.85 nM
- Kd [11]: 1.14 nM
- stoichiometry N [12]: 2
- Kd [13]: 1.18 nM
Molecule: VEGF165a-TMR (fluorescent VEGF165a labeled with 6-TMR-PEG-CBT on a single N-terminal cysteine of each protomer) (ligand)

- pKi [14]: 9.41
B1: VEGF165b (recombinant human, R&D Systems) (ligand)
chain: APMAEGGGQNHHEVVKFMDVYQRSYCHPIETLVDIFQEYPDEIEYIFKPSCVPLMRCGGCCNDEGLECVPTEESNITMQIMRIKPHQGQHIGEMSFLQHNKCECRPKKDRARQENPCGPCSERRKHLFVQDPQTCKCSCKNTDSRCKARQLELNERTCRSLTRKD

- pKi [14]: 8.74
B2: VEGF145a (recombinant human, R&D Systems) (ligand)
chain: APMAEGGGQNHHEVVKFMDVYQRSYCHPIETLVDIFQEYPDEIEYIFKPSCVPLMRCGGCCNDEGLECVPTEESNITMQIMRIKPHQGQHIGEMSFLQHNKCECRPKKDRARQEKKSVRGKGKGQKRKRKKSRYKSWSVCDKPRR

- pKi [14]: 8.99
B3: VEGF189a (recombinant human, R&D Systems) (ligand)
chain: APMAEGGGQNHHEVVKFMDVYQRSYCHPIETLVDIFQEYPDEIEYIFKPSCVPLMRCGGCCNDEGLECVPTEESNITMQIMRIKPHQGQHIGEMSFLQHNKCECRPKKDRARQEKKSVRGKGKGQKRKRKKSRYKSWSVPCGPCSERRKHLFVQDPQTCKCSCKNTDSRCKARQLELNERTCRCDKPRR

- pKi [14]: 9.47
B4: VEGF121a (recombinant human, R&D Systems) (ligand)
chain: APMAEGGGQNHHEVVKFMDVYQRSYCHPIETLVDIFQEYPDEIEYIFKPSCVPLMRCGGCCNDEGLECVPTEESNITMQIMRIKPHQGQHIGEMSFLQHNKCECRPKKDRARQEKCDKPRR
